In patent US20180142032A1 (Sanofi, published 2018):

Legend:
LAMP1::histag [1] = target: T1, LAMP1::histag (human, UniProt P11279 29-382); experiment: ELISA
T1 construct: extracellular domain without signal peptide, C-terminal 6 His tag, made in HEK293 cells; also called recombinant human LAMP1; human LAMP1 (29-382)
T1 sequence: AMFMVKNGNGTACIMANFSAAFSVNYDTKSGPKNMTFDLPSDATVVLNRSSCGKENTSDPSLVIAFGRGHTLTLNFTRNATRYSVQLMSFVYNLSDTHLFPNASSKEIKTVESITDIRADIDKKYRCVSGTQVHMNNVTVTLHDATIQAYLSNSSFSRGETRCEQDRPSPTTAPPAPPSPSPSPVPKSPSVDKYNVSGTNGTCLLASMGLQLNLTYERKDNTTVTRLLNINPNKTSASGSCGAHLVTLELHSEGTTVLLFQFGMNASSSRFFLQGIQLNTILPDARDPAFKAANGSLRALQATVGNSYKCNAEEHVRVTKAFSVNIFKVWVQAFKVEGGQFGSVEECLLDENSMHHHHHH

[2] = target: T2, mLAMP1_L1_LAMP1_L234::histag (mouse/human hybrid); experiment: ELISA
T2 construct: also called Loop1: mLAMP1 Loop2-4: hLAMP1
T2 chain: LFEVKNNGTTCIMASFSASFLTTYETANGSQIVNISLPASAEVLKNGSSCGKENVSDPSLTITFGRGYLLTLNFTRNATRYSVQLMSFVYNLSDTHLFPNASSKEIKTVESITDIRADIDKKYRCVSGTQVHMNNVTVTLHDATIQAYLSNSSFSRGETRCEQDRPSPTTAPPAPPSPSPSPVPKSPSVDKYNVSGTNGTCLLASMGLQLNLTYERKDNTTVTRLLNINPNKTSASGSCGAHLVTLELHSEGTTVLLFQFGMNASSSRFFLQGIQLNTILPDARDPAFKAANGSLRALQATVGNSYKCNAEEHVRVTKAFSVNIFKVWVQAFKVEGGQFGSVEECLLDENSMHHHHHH

[3] = target: T3, LAMP1_L12_mLAMP1_L34::histag (human/mouse hybrid); experiment: ELISA
T3 construct: human LAMP1 (29-195) and mouse LAMP1 (190-369), His tag; also called Loop1-2: hLAMP1 Loop3-4: mLAMP1
T3 chain: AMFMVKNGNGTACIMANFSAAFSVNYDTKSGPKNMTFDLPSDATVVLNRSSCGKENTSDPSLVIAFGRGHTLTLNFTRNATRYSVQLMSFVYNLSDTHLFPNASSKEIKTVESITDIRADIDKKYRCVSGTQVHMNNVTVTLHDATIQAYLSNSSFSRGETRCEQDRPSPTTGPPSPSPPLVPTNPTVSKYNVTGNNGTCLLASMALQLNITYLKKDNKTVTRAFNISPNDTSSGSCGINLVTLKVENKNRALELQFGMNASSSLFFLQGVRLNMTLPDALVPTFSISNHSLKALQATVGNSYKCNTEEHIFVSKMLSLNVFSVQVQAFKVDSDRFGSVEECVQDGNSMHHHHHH

[4] = target: T4, recombinant human LAMP2 with a C-terminal 10 His-tag (human, UniProt P13473 29-375); experiment: ELISA on coated LAMP2
T4 construct: bought; also called soluble LAMP2 protein (R&D Systems 6228-LM)
Description: LAMP2 is the closest member of the LAMP family with 35% sequence identity to LAMP1. […] Anti-LAMP1 antibodies were added to the plates and detected by using rabbit anti-mouse IgG conjugated with horseradish peroxidase (Sigma; #A9044). Antibody binding was visualized by adding TMB-H₂O₂ buffer and read at a wavelength of 450 nm.

hLAMP1_ΔGYQTI = target: T5, hLAMP1_ΔGYQTI (human, UniProt P11279 29-412); experiment: flow cytometry, transfected 293-F cells
T5 construct: also called pXL5626
T5 sequence: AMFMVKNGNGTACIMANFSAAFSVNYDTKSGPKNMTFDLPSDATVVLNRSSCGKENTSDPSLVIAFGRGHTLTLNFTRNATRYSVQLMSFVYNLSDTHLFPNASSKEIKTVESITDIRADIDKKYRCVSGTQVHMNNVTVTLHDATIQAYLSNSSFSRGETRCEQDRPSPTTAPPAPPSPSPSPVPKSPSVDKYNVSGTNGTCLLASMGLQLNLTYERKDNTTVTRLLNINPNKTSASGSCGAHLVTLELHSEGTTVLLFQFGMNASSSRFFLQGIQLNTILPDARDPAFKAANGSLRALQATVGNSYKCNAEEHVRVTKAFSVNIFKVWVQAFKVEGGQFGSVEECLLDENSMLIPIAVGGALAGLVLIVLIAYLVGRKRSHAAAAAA

LAMP1_mseq2_ΔGYQTI = target: T6, LAMP1_mseq2_ΔGYQTI (human; mouse); experiment: flow cytometry, transfected 293-F cells
T6 construct: on cells; also called pXL6013

LAMP1_mseq3_ΔGYQTI = target: T7, LAMP1_mseq3_ΔGYQTI (human; mouse); experiment: flow cytometry, transfected 293-F cells
T7 construct: on cells; also called pXL6014

LAMP1_mseq5_ΔGYQTI = target: T8, LAMP1_mseq5_ΔGYQTI (human; mouse); experiment: flow cytometry, transfected 293-F cells
T8 construct: on cells; also called pXL6017

LAMP1::histag [5] = target: T1, LAMP1::histag; experiment: SPR (BIAcore 2000), mAb captured by anti-Fc, LAMP1 injected 1 to 256 nM
Description: The binding kinetics of the murine, chimer or humanized anti-LAMP1 mAbs were determined by surface plasmon resonance assay using a BIAcore 2000 (BIAcore Inc., Uppsala, N.J.). […] A mouse anti-αhuman Fc IgG1 (BIAcore #BR-1008-39) and rabbit anti-αmurine Fc IgG1 (BIAcore #BR-1008-38) (50 μg/mL in […], pH5) were immobilized on the activated chips in all flow cells. The immobilization was carried out at a flow rate of 10 μL/min up to saturation. The chip was then blocked by injection of 70 μL of ethanolamine-HCl, pH 8.5, followed by one wash with 3 M MgCl₂ for anti-αhuman Fc IgG1 and one wash with 10 mM Glycine-HCl pH 1.7 for anti-αmurine Fc IgG1. To measure the binding of anti-LAMP1 mAbs to LAMP1, antibodies were used at 1-5 μg/mL in BIAcore running buffer (HBS-EP). […] Following completion of the injection phase, dissociation was monitored in a BIAcore running buffer at the same flow rate for 600 sec. […] Individual sensorgrams were analyzed using BIAevaluation software.

T4 sequence (P13473 other isoform, or with tags, fused parts or gaps): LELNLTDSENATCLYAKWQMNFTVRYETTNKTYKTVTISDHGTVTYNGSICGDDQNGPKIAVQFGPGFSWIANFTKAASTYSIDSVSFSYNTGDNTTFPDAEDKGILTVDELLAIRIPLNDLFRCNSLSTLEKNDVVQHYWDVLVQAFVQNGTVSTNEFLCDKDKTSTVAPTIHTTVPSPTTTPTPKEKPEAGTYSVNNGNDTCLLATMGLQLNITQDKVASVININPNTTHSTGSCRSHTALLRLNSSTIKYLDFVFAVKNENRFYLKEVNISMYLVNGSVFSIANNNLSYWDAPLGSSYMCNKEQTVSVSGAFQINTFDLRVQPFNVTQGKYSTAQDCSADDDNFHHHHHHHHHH

B1: MAb1 (antibody, mouse IgG2a, kappa)
heavy: QVQLQQSGAELVKPGASVKMSCKASGYIFTNYNIHWVKKSPGQGLEWIGAIYPGNGDAPYSQKFKDKATLTADKSSSTTYMQLSRLTSEDSAVYYCVRANWDVAFAYWGQGTLVSVSAAKTTAPSVYPLAPVCGDTTGSSVTLGCLVKGYFPEPVTLTWNSGSLSSGVHTFPAVLQSDLYTLSSSVTVTSSTWPSQSITCNVAHPASSTKVDKKIEPRGPTIKPCPPCKCPAPNLLGGPSVFIFPPKIKDVLMISLSPIVTCVVVDVSEDDPDVQISWFVNNVEVHTAQTQTHREDYNSTLRVVSALPIQHQDWMSGKEFKCKVNNKDLPAPIERTISKPKGSVRAPQVYVLPPPEEEMTKKQVTLTCMVTDFMPEDIYVEWTNNGKTELNYKNTEPVLDSDGSYFMYSKLRVEKKNWVERNSYSCSVVHEGLHNHHTTKSFSRTPGK
light: DIQMTQSPPSLSASLGGKVTITCKASQDIDRYMAWYQDKPGKGPRLLIHDTSTLQPGIPSRFSGSGSGRDYSFSISNLEPEDIATYYCLQYDNLWTFGGGTKLEIKRADAAPTVSIFPPSSEQLTSGGASVVCFLNNFYPKDINVKWKIDGSERQNGVLNSWTDQDSKDSTYSMSSTLTLTKDEYERHNSYTCEATHKTSTSPIVKSFNRNEC
notes: murine monoclonal IgG, kappa, from hybridoma; also called murine MAb1
B1 was tested, and the EC50 (LAMP1::histag [1]) was 0.18 nM, the EC50 [2] was 0.15 nM and the EC50 [3] was 0.18 nM. The binding result [4] was “no binding”, the mean fluorescence (hLAMP1_ΔGYQTI) was 914 and the mean fluorescence (LAMP1_mseq2_ΔGYQTI) was 990. It also gave a mean fluorescence (LAMP1_mseq3_ΔGYQTI) of 888, a mean fluorescence (LAMP1_mseq5_ΔGYQTI) of 846 and a Kd (LAMP1::histag [5]) of 4.8 nM.

B2: MAb3 (antibody, V domains shown)
VH: QIQLVQSGPELKKPGETVKISCKASGYIFTNYGMNWVKQAPGKGLKWMGWINTYTGESRYADDFKGRFALSLETSASTAYLQINNLENEDMATYFCAREDYYGNSPWFFDVWGAGTTVTVSS
VL: DIQMTQTTSSLSASLGDRVTISCNASQGINKYLNWYQQKPDGTVKLLIYYTSTLHSGVPSRFSGSGSGTDYSLTINNLEPEDIATYYCQQYTKLPFTFGSGTKLEIK
notes: murine monoclonal IgG, kappa, from hybridoma; also called murine MAb3
B2 was tested, and the binding result [4] was “no binding”, the mean fluorescence (hLAMP1_ΔGYQTI) was 749 and the mean fluorescence (LAMP1_mseq2_ΔGYQTI) was 803. The mean fluorescence (LAMP1_mseq3_ΔGYQTI) was 674, the mean fluorescence (LAMP1_mseq5_ΔGYQTI) was 721 and the Kd (LAMP1::histag [5]) was 4.7 nM.

B3: huMAb1_1 (antibody, human IgG1, kappa)
heavy: not shown
light: DIQMTQSPSSLSASVGDRVTITCKASQDIDRYMAWYQDKPGKAPRLLIHDTSTLQSGVPSRFSGSGSGRDYTLTISNLEPEDFATYYCLQYDNLWTFGGGTKVEIKRTVAAPSVFIFPPSDEQLKSGTASVVCLLNNFYPREAKVQWKVDNALQSGNSQESVTEQDSKDSTYSLSSTLTLSKADYEKHKVYACEVTHQGLSSPVTKSFNRGEC
notes: humanized, VH1-huIgG1 and VL1-huCk
In the case of B3, the Kd (LAMP1::histag [5]) is reported as 8.2 nM.

B4: MAb2 (antibody, mouse IgG1, kappa)
heavy: QVQLQQSAAELARPGASVKMSCKASGYTFTSYTMHWVKQRPGQGLEWIGYFNPSSGYPEYNQKFKDKTTLTADKSSNTAFIQLNSLTSEDSAVYYCSRGYYYGSRGYALDFWGQGASVTVSSAKTTPPSVYPLAPGSAAQTNSMVTLGCLVKGYFPEPVTVTWNSGSLSSGVHTFPAVLQSDLYTLSSSVTVPSSTWPSETVTCNVAHPASSTKVDKKIVPRDCGCKPCICTVPEVSSVFIFPPKPKDVLTITLTPKVTCVVVDISKDDPEVQFSWFVDDVEVHTAQTQPREEQFNSTFRSVSELPIMHQDWLNGKEFKCRVNSAAFPAPIEKTISKTKGRPKAPQVYTIPPPKEQMAKDKVSLTCMITDFFPEDITVEWQWNGQPAENYKNTQPIMDTDGSYFVYSKLNVQKSNWEAGNTFTCSVLHEGLHNHHTEKSLSHSPGK
light: NIVLTQSPVSLAVSLGQRATISCRASESVDINGNTFMHWYQQKPGQSPKLVIYAASNIESGVPARFSGSGSSTDFTFTIDPVEADDVATYYCQQNIEDPWTFGGGTKVEIKRADAAPTVSIFPPSSEQLTSGGASVVCFLNNFYPKDINVKWKIDGSERQNGVLNSWTDQDSKDSTYSMSSTLTLTKDEYERHNSYTCEATHKTSTSPIVKSFNRNEC
notes: murine monoclonal IgG, kappa, from hybridoma; also called murine MAb2
With B4 the EC50 (LAMP1::histag [1]) was 0.25 nM, the binding result [2] was “no binding” and the EC50 [3] was 0.25 nM. The binding result [4] was “no binding”, the mean fluorescence (hLAMP1_ΔGYQTI) was 757 and the mean fluorescence (LAMP1_mseq2_ΔGYQTI) was 694. For the same binder, the mean fluorescence (LAMP1_mseq3_ΔGYQTI) was 694, the mean fluorescence (LAMP1_mseq5_ΔGYQTI) was 629 and the Kd (LAMP1::histag [5]) was 63.5 nM.
